Assay [1] has as its target human transferrin receptor (TfR) (human) (UniProt P02786). Briefly: FACS on DU145 cells, percent of cells above the fluorescence threshold.
Assay [2] has the same target. Briefly: FACS on JSQ-3 cells, percent of cells above the fluorescence threshold.
For assay [3] the target is unchanged. The assay is described as follows: indirect cellular ELISA on fixed JSQ-3 cells; highest concentration of Hb21 (100 µl), positive control.
For assay [4] the target is unchanged. The assay is described as follows: indirect cellular ELISA on fixed JSQ-3 cells, anti-His detection.
Assay [5] shares this target. Briefly: indirect cellular ELISA on fixed JSQ-3 cells, anti-His detection; 3 µg of protein. A general note: ELISA stands for enzyme-linked immunosorbent assay.
For assay [6] the target is unchanged. The assay is described as follows: indirect cellular ELISA on fixed JSQ-3 cells, anti-His detection; 0.6 µg of protein.
Assay [7] has the same target. The assay is described as follows: indirect cellular ELISA on fixed JSQ-3 cells, anti-His detection; 1.5 µg of protein.

Our source for the % Positive and OD490 values is patent publication US7479276.

Sequence of human transferrin receptor (TfR) (human) (P02786 whole entry): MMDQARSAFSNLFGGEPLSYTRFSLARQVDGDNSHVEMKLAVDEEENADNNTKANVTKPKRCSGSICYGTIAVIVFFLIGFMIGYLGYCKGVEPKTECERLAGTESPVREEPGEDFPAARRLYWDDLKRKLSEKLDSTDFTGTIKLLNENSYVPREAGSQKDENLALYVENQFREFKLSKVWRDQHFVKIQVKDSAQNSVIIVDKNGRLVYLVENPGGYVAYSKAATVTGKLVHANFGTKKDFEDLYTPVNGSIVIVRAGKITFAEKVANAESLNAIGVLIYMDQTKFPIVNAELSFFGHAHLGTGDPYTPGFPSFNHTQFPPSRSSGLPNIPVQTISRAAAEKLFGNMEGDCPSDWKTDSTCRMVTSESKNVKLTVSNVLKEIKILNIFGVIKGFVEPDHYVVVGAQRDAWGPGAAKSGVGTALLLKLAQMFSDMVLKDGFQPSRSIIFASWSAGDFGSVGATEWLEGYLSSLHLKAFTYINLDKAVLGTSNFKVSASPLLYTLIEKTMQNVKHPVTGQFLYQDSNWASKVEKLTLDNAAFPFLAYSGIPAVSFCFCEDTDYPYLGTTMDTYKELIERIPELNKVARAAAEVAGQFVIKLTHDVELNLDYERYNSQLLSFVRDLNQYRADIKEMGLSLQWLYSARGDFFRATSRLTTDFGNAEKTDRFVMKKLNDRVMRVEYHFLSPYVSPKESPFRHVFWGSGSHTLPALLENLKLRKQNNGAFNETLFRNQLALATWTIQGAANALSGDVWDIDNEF

On to “HB21 anti-transferrin receptor monoclonal antibody”, for which the values for the % Positive in assay [1] and in assay [2] were 98.7% and 99.4%, respectively. The substance also registered an OD490 in assay [3] of 0.033 OD490.
For the substance “TfRscFv containing a C-terminal cysteine, with a His tag”, the OD490 in assay [4] was 0.235 OD490; in assay [5], 0.132 OD490; in assay [6] it was 0.06 OD490; in assay [7], 0.1 OD490.
